# Measured values from patent US20210284691A1, “CBX8 CHROMDOMAIN INHIBITORS AND THE USES THEREOF” (Purdue Research Foundation, priority 2019, published 2021).
# Square brackets hold non-standard residues; d marks the D form. Primed or numbered codes have the meaning given here. Ends that are not written are not given here. * marks the point of attachment. triazole = triazole formed by click reaction joining the C-terminal propargylamide to 5/6-carboxyfluorescein; Isoxazole3carbonyl(5-Me) = Cc1cc(C(=O)*)no1; Tyr(3-Cl) = N[C@@H](Cc1ccc(O)c(Cl)c1)C(=O)O; Lys(Me3) = C[N+](C)(C)CCCC[C@H](N)C(=O)O; Lys(Et2) = CCN(CC)CCCC[C@H](N)C(=O)O; triazole″ = not defined here; PEG4′ = not defined here; NH(propargyl) = C#CCN*
# T1: CBX6 chromodomain (CBX6 ChD), N-terminal His6-tagged recombinant protein (UniProt O95503 8-65, limits assumed)
# T1 construct: domain: chromodomain; not shown: N-terminal His6 tag
# T1 sequence (looked up): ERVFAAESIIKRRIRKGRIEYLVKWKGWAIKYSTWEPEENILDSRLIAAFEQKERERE
# T2: CBX8 chromodomain (CBX8 ChD), N-terminal His6-tagged recombinant protein (UniProt Q9HC52 8-61, limits assumed)
# T2 construct: domain: chromodomain; not shown: N-terminal His6 tag
# T2 sequence (looked up): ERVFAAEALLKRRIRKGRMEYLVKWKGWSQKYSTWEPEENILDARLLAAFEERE
# T3: endogenous CBX6 (HEK293T nuclear lysate) (human, UniProt O95503 1-412)
# T3 sequence (looked up): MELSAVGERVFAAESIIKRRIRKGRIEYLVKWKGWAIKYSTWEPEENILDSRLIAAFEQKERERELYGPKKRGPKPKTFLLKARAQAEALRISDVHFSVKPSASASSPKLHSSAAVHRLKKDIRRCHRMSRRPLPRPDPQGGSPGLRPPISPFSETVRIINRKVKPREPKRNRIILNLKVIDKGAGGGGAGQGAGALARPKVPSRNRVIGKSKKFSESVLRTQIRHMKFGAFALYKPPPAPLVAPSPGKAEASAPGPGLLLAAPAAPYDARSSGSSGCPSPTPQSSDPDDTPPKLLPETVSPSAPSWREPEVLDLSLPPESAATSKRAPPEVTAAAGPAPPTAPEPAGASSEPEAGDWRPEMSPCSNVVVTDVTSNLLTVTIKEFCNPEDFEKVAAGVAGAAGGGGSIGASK
# T4: endogenous CBX4 (HEK293T nuclear lysate) (human, UniProt O00257 1-560, limits assumed)
# T4 construct: Meant by 'any other paralogs' in the pulldown text
# T4 sequence (looked up): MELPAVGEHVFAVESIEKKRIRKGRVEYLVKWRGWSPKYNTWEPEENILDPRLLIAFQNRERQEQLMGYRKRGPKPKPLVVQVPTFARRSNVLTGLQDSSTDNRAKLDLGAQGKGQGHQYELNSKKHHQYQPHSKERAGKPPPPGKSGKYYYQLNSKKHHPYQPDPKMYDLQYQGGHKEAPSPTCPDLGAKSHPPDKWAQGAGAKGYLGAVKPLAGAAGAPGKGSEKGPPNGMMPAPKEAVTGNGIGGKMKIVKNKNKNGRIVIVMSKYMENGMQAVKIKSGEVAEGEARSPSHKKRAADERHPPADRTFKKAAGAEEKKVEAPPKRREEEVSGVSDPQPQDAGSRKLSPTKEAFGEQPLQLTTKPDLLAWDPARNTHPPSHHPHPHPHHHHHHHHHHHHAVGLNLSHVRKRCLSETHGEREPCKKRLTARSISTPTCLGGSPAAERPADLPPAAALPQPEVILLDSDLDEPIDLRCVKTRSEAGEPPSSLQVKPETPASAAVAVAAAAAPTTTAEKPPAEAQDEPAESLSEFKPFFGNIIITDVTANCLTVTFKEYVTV
# T5: endogenous CBX7 (from cells / lysate) (human, UniProt O95931 1-251)
# T5 sequence (looked up): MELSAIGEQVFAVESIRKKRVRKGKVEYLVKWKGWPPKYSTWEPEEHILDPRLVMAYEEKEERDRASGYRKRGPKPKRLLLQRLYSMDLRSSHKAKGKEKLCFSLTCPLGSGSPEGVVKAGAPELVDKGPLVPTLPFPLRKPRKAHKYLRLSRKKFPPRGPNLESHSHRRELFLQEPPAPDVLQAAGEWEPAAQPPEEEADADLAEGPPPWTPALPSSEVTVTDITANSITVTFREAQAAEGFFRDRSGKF
# T6: CBX4 chromodomain (CBX4 ChD), N-terminal His6-tagged recombinant protein (UniProt O00257 8-65, limits assumed)
# T6 construct: domain: chromodomain; not shown: N-terminal His6 tag
# T6 sequence (looked up): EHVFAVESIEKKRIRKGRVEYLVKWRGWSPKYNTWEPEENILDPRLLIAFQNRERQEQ
# T7: CBX7 chromodomain (CBX7 ChD), N-terminal His6-tagged recombinant protein (UniProt O95931 8-62, limits assumed)
# T7 construct: domain: chromodomain; not shown: N-terminal His6 tag
# T7 sequence (looked up): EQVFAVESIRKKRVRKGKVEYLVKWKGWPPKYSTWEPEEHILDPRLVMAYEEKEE
# T8: CBX2 chromodomain (CBX2 ChD), N-terminal His6-tagged recombinant protein (UniProt Q14781 9-66, limits assumed)
# T8 construct: domain: chromodomain; Expressed in E. coli and purified on Ni-NTA; not shown: N-terminal His6 tag
# T8 sequence (looked up): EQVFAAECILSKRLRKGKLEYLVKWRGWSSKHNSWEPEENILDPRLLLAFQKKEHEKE
# Experiments:
# [1] = target: CBX7 chromodomain (CBX7 ChD), N-terminal His6-tagged recombinant protein (UniProt O95931); assay: competitive fluorescence polarization, displacement of FITC-labelled probe
# [2] = target: CBX6 chromodomain (CBX6 ChD), N-terminal His6-tagged recombinant protein (UniProt O95503); assay: as above
# [3] = target: CBX8 chromodomain (CBX8 ChD), N-terminal His6-tagged recombinant protein (UniProt Q9HC52); assay: as above
# [4] = target: CBX2 chromodomain (CBX2 ChD), N-terminal His6-tagged recombinant protein (UniProt Q14781); assay: competitive fluorescence polarization (FP) assay, displacement of the FITC-labelled probe
# [5] = target: CBX4 chromodomain (CBX4 ChD), N-terminal His6-tagged recombinant protein (UniProt O00257); assay: as above
# [6] = target: T1, CBX6 chromodomain (CBX6 ChD), …; assay: direct fluorescence polarization, fluorescein-conjugated ligand
# [7] = target: T2, CBX8 chromodomain (CBX8 ChD), …; assay: as above
# [8] = target: T2, CBX8 chromodomain (CBX8 ChD), …; assay: direct fluorescence polarization; reference CBX2 ChD; CBX8 is the closest paralog by Table 3
# [9] = target: T3, endogenous CBX6 (HEK293T nuclear lysate); assay: chemoprecipitation from HEK293T nuclear lysate, immunoblot
# [10] = target: T4, endogenous CBX4 (HEK293T nuclear lysate); assay: as above
# [11] = target: T5, endogenous CBX7 (from cells / lysate); assay: as above
# [12] = target: T9, BRG1 (endogenous, HEK293T nuclear lysate) (human, UniProt P51532 1-1647); assay: as above
# T9 construct: Non-specific control of the chemoprecipitation
# [13] = target: T2, CBX8 chromodomain (CBX8 ChD), …; assay: method not given
# [14] = target: T6, CBX4 chromodomain (CBX4 ChD), …; assay: direct fluorescence polarization, FAM-labelled ligand at 100 nM, ChD titrated
# [15] = target: T1, CBX6 chromodomain (CBX6 ChD), …; assay: as above
# [16] = target: T2, CBX8 chromodomain (CBX8 ChD), …; assay: as above
# [17] = target: T7, CBX7 chromodomain (CBX7 ChD), …; assay: as above
# [18] = target: T8, CBX2 chromodomain (CBX2 ChD), …; assay: as above
# [19] = target: T7, CBX7 chromodomain (CBX7 ChD), …; assay: direct fluorescence titration of KED97L-FL; reference CBX8 ChD
# [20] = target: T6, CBX4 chromodomain (CBX4 ChD), …; assay: competitive fluorescence polarization (FP) assay, displacement of the FITC-labelled probe
# [21] = target: T1, CBX6 chromodomain (CBX6 ChD), …; assay: as above
# [22] = target: T2, CBX8 chromodomain (CBX8 ChD), …; assay: as above
# [23] = target: T7, CBX7 chromodomain (CBX7 ChD), …; assay: as above
# [24] = target: T8, CBX2 chromodomain (CBX2 ChD), …; assay: as above
# [25] = target: T8, CBX2 chromodomain (CBX2 ChD), …; assay: Thermal Shift Assay of the non-derivatized ligand
# T9 sequence (P51532 whole entry): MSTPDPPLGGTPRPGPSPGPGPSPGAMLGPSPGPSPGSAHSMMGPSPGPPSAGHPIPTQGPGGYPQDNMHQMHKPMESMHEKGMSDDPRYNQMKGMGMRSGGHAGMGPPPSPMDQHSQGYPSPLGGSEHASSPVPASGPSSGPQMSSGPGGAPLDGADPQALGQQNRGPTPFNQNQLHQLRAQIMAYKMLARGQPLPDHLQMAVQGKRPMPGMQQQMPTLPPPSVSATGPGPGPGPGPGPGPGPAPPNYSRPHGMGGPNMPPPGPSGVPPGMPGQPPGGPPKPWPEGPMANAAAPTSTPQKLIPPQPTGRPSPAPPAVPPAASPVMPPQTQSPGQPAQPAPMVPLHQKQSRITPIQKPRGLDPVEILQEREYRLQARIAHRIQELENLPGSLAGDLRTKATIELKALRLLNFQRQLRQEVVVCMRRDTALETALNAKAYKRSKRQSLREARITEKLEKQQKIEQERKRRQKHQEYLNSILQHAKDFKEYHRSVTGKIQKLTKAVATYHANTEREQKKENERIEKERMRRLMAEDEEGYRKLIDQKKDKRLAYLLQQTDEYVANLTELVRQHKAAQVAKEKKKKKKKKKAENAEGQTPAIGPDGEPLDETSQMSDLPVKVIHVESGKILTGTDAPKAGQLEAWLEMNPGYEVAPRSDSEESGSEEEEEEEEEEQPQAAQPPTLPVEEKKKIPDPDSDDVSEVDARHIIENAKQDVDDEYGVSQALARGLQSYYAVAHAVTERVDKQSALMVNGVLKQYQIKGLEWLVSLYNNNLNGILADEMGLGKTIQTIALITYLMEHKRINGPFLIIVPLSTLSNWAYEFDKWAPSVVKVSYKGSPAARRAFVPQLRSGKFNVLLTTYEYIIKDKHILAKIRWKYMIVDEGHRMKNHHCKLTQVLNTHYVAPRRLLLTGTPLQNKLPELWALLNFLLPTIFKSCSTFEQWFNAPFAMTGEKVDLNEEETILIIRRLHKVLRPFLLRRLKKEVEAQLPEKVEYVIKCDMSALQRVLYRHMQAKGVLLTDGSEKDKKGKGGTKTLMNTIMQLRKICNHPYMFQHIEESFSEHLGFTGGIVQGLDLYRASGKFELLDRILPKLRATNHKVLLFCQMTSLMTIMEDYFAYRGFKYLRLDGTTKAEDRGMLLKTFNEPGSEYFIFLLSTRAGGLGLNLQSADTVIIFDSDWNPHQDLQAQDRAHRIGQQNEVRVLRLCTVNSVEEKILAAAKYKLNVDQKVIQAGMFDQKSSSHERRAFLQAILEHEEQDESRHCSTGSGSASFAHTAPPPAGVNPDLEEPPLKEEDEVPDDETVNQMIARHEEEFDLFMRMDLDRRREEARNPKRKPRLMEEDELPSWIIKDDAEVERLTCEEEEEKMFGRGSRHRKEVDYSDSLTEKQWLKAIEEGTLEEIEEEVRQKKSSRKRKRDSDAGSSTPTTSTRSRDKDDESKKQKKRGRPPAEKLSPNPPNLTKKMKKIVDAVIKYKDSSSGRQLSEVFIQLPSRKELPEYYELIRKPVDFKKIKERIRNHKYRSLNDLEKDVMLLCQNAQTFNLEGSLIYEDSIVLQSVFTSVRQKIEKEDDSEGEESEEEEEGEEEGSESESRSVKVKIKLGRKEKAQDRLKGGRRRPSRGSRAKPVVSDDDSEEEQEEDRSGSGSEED
binder,measurement,setting,value
"[Tyr(3-Cl)]PIK(trimethyl)S-NH2 (also: N-terminal acylation, acyl group not given here) [KED98 (PP)]",IC50,[1],83 µM
same,IC50,[2],34 µM
same,IC50,[3],14 µM
same,IC50,[4],46 µM
same,IC50,[5],173 µM
"PI[Lys(Et2)]S (not fully specified (C-terminus); also: Pro1 alpha-amino modified, group not given here (non-natural monomer), also called fluorescein-conjugated SW2_152F) [SW2_152F-FL (library#77)]",Kd,[6],9 µM
same,Kd,[7],1.9 µM
same,selectivity for CBX2 over the other paralogs (fold),[8],≥ 24 fold
"PI[Lys(Et2)]S-{PEG4′-biotin} (also: Pro1 alpha-amino modified, group not given here, non-natural monomers) [SW2_152F-B (biotinylated SW2_152F)]",binding result,[9],no binding
same,binding result,[10],binds
same,binding result,[11],no binding
same,binding result,[12],no binding
{Isoxazole3carbonyl(5-Me)}-[Tyr(3-Cl)]VI[Lys(Et2)]S-{NH(propargyl)-triazole″-PEG2‑chloroalkane} (reading uncertain) [KED97L-CA (chloroalkane-modified KED97L)],Kd,[13],0.4 µM
{Isoxazole3carbonyl(5-Me)}-[Tyr(3-Cl)]VI[Lys(Et2)]S-{NH(propargyl)-triazole-5/6‑FAM} (also called 97L fluorescein derivative; KED97L (as measured)) [KED97L-FL],Kd,[14],2.7 µM
same,Kd,[15],0.26 µM
same,Kd,[16],0.24 µM
same,Kd,[17],4.7 µM
same,Kd,[18],1.1 µM
same,selectivity for CBX8 ChD over CBX7 ChD (fold),[19],20 fold
{Isoxazole3carbonyl(5-Me)}-[Tyr(3-Cl)]VI[Lys(Me3)]S-NH2 (Final PSL1 ligand with combined synthons) [KED97],IC50,[20],49 µM
same,IC50,[21],4.4 µM
same,IC50,[22],9.5 µM
same,IC50,[23],60 µM
same,IC50,[24],21 µM
"PI[Lys(Et2)]S-{NH(propargyl)} (also: Pro1 alpha-amino modified, group not given here, non-natural monomers, Non-derivatized ligand, used in the Thermal Shift Assay and in cells; also called CBX2i) [SW2_152F]",Kd,[25],0.11 µM
